Results published in patent US20240166733A1 (VERSITECH, published 2024).

What was measured:
Assay in all cases: ELISA, FABP coated on plate, HRP anti-mouse IgG detection, OD450
[1] = target: T1, mouse E-FABP recombinant protein (mouse, UniProt Q05816 1-135, limits assumed)
T1 construct: also called mouse epidermal-FABP
T1 sequence (looked up): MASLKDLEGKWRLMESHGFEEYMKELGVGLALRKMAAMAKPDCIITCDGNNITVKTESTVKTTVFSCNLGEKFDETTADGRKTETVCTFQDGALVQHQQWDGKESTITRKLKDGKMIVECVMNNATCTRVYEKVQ
Procedure: (§1) The mouse or human A-FABP, E-FABP, and H-FABP recombinant proteins ([…]) were coated on 96-well plates overnight for ELISA binding assay to evaluate the reactivity and specificity of monoclonal antibodies with various FABPs. [0155] 100 μL of 6H2 (1 μg/mL) was added to the wells and incubated for 1 h at room temperature. The plates were then washed three times with phosphate-buffered saline (PBS), followed by incubation with 0.2 μg/mL HRP-conjugated-[…] H+L (Proteintech, SA00001-1, Japan) as the detection antibody at room temperature for 1 hour. After washing with PBS, TMB chromogen solution (Beyotime, P0209, China) was added for color development; 2M H₂SO₄ was added to the wells to stop the enzyme-induced color reactions; and the absorbance at 450 nm was measured with a microtiter plate reader.

[2] = target: T2, mouse H-FABP recombinant protein (mouse, UniProt P11404 1-133, limits assumed)
T2 construct: also called mouse heart-FABP
T2 sequence (P11404 whole entry): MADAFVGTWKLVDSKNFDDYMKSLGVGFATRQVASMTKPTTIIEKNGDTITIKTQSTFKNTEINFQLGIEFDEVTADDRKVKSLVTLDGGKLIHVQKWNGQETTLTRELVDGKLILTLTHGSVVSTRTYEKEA
Procedure: as §1

[3] = target: T3, human E-FABP recombinant protein (human, UniProt Q01469 1-135, limits assumed)
T3 construct: also called human epidermal-FABP
T3 sequence (Q01469 whole entry): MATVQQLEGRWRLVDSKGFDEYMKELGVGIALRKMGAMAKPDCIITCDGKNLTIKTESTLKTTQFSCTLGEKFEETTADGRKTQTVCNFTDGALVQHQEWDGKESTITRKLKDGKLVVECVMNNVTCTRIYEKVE
Procedure: as §1

[4] = target: T4, human H-FABP recombinant protein (human, UniProt P05413 1-133, limits assumed)
T4 construct: also called human heart-FABP
T4 sequence (P05413 whole entry): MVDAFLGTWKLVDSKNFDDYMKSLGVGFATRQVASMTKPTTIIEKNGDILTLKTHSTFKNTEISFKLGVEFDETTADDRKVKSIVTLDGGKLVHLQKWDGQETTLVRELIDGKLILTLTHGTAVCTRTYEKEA
Procedure: as §1

Measured: binding result

B1: A-FABP neutralizing monoclonal antibody 6H2 (antibody, V domains shown)
VH: VKLQESGPELVKPGASVKIPCKASGYTFTDYNMDWVRQSRGKSLEWIGDINPYNGDTIYNQNFKGKATLTVDKSSTTAYLELRSLTSEDTAVYYCASGYGFWGQGTTVTVSS
VL: DIVMTQAPLSLPVSLGAQASISCRSSQSLVYINGNTYLHWYLQKPGQSPKLLIYKVSNRFSGVPDRFSGSGSGTDFTLKISRVEAEDLGVYFCSQSTHVPYTFGGGTKLEIK
notes: also called 6H2 mAb
no binding (tested: 6H2 at 1 µg/mL): [1] | [2] | [3] | [4]
